The sequences below were run on Escherichia coli TOP10 (assay: shrunken log2 fold change of peptide-encoding DNA abundance (4.5 h post-induction vs induction); higher = less antimicrobial activity (less host growth inhibition)). Settings: time post-induction: 4.5 h; library: site-saturation at positions 5, 18, 19, 20.
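Also: peptides expressed intracellularly from a pBAD plasmid library in pooled LB shake-flask culture, induced with 0.3% L-arabinose, DNA abundance read by NGS, three biological replicates, DESeq2 with apeglm shrinkage.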

| Sequence | shrunken log2 fold change |
| --- | --- |
| RRIRKRPPRLPRPRPRPDHYPRP | -0.0322 |
| RRIRERPPRLPRPRPRPHAGPRP | 0.0727 |
| RRIRYRPPRLPRPRPRPNDRPRP | -0.0645 |
| RRIRNRPPRLPRPRPRPARMPRP | 0.991 |
| RRIRNRPPRLPRPRPRPPSNPRP | -0.135 |
| RRIRIRPPRLPRPRPRPSCIPRP | -0.0523 |
| RRIRARPPRLPRPRPRPEEDPRP | 1.77 |
| RRIRHRPPRLPRPRPRPWGAPRP | -0.0102 |
| RRIRQRPPRLPRPRPRPGWPPRP | 0.514 |
| RRIRFRPPRLPRPRPRPRFYPRP | -0.0297 |
| RRIRCRPPRLPRPRPRPIGIPRP | -0.303 |
| RRIRQRPPRLPRPRPRPASEPRP | -0.019 |
| RRIRLRPPRLPRPRPRPRDCPRP | -0.0082 |
| RRIRPRPPRLPRPRPRPVSAPRP | 0.249 |
| RRIRNRPPRLPRPRPRPMHIPRP | -0.168 |
| RRIRFRPPRLPRPRPRPKMHPRP | 0.0482 |
| RRIRVRPPRLPRPRPRPRAVPRP | 0.314 |
| RRIRIRPPRLPRPRPRPWADPRP | -0.435 |
| RRIRGRPPRLPRPRPRPTAQPRP | 1.35 |
| RRIRNRPPRLPRPRPRPISDPRP | -0.0335 |
| RRIRPRPPRLPRPRPRPKHRPRP | 0.0187 |
| RRIRWRPPRLPRPRPRPHRGPRP | -0.0412 |
| RRIRHRPPRLPRPRPRPPAPPRP | 0.466 |
| RRIRIRPPRLPRPRPRPGFYPRP | 0.054 |
| RRIRYRPPRLPRPRPRPCMWPRP | 0.0465 |

| Sequence | shrunken log2 fold change |
| --- | --- |
| RRIRNRPPRLPRPRPRPIVWPRP | 0.0313 |
| RRIRVRPPRLPRPRPRPKDFPRP | 0.123 |
| RRIRFRPPRLPRPRPRPPITPRP | -0.389 |
| RRIRIRPPRLPRPRPRPFVMPRP | -0.275 |
| RRIRQRPPRLPRPRPRPYKVPRP | 0.000796 |
| RRIRIRPPRLPRPRPRPMLCPRP | -0.0741 |
| RRIRDRPPRLPRPRPRPPWDPRP | 0.442 |
| RRIRPRPPRLPRPRPRPEEPPRP | 0.437 |
| RRIRFRPPRLPRPRPRPSWMPRP | -0.0113 |
| RRIRDRPPRLPRPRPRPVCGPRP | 0.979 |
| RRIRMRPPRLPRPRPRPIAMPRP | 0.0028 |
| RRIRCRPPRLPRPRPRPLYMPRP | -0.807 |
| RRIRYRPPRLPRPRPRPMHCPRP | -0.0557 |
| RRIRMRPPRLPRPRPRPDFPPRP | -0.0976 |
| RRIRYRPPRLPRPRPRPGKGPRP | -0.0232 |
| RRIRTRPPRLPRPRPRPTMVPRP | -0.0941 |
| RRIRHRPPRLPRPRPRPNSQPRP | -0.346 |
| RRIRKRPPRLPRPRPRPVPHPRP | 0.189 |
| RRIRQRPPRLPRPRPRPTERPRP | 0.313 |
| RRIRIRPPRLPRPRPRPDFDPRP | -0.137 |
| RRIRDRPPRLPRPRPRPVTMPRP | -0.228 |
| RRIRLRPPRLPRPRPRPTQWPRP | 0.453 |
| RRIRIRPPRLPRPRPRPHFNPRP | -0.966 |
| RRIRERPPRLPRPRPRPIKYPRP | -0.351 |
| RRIRSRPPRLPRPRPRPPREPRP | 0.622 |

| Sequence | shrunken log2 fold change |
| --- | --- |
| RRIRVRPPRLPRPRPRPDLGPRP | 0.155 |
| RRIRDRPPRLPRPRPRPIHYPRP | -0.0149 |
| RRIRLRPPRLPRPRPRPKIFPRP | -0.0395 |
| RRIRGRPPRLPRPRPRPFIYPRP | 0.0217 |
| RRIRLRPPRLPRPRPRPETTPRP | 0.182 |
| RRIRHRPPRLPRPRPRPFPDPRP | 0.0592 |
| RRIRCRPPRLPRPRPRPSIVPRP | -0.965 |
| RRIRPRPPRLPRPRPRPETEPRP | 0.344 |
| RRIRLRPPRLPRPRPRPPWYPRP | -0.312 |
| RRIRLRPPRLPRPRPRPYWEPRP | -0.0613 |
| RRIRARPPRLPRPRPRPCIIPRP | -0.076 |
| RRIRHRPPRLPRPRPRPECRPRP | 0.0764 |
| RRIRARPPRLPRPRPRPMFVPRP | -0.134 |
| RRIRYRPPRLPRPRPRPYVAPRP | -0.206 |
| RRIRCRPPRLPRPRPRPQIDPRP | -0.0788 |
| RRIRHRPPRLPRPRPRPRCHPRP | -0.555 |
| RRIRKRPPRLPRPRPRPLYDPRP | -0.0647 |
| RRIRLRPPRLPRPRPRPVETPRP | 0.217 |
| RRIRRRPPRLPRPRPRPFIRPRP | -0.326 |
| RRIRNRPPRLPRPRPRPECNPRP | -0.0153 |
| RRIRVRPPRLPRPRPRPWIAPRP | 0.201 |
| RRIRHRPPRLPRPRPRPTCNPRP | -0.411 |
| RRIRYRPPRLPRPRPRPPLYPRP | 0.755 |
| RRIRQRPPRLPRPRPRPLYKPRP | -1.34 |
| RRIRQRPPRLPRPRPRPHHKPRP | -0.205 |

| Sequence | shrunken log2 fold change |
| --- | --- |
| RRIRDRPPRLPRPRPRPNSDPRP | -0.272 |
| RRIRVRPPRLPRPRPRPKNEPRP | 0.00832 |
| RRIRVRPPRLPRPRPRPKKTPRP | -0.0604 |
| RRIRQRPPRLPRPRPRPRRAPRP | 0.79 |
| RRIRCRPPRLPRPRPRPWSMPRP | -0.308 |
| RRIRCRPPRLPRPRPRPQPSPRP | 0.228 |
| RRIRCRPPRLPRPRPRPDANPRP | -0.00199 |
| RRIRVRPPRLPRPRPRPAAHPRP | 0.0619 |
| RRIRPRPPRLPRPRPRPWEEPRP | 0.148 |
| RRIRMRPPRLPRPRPRPMMIPRP | -0.025 |
| RRIRNRPPRLPRPRPRPHVFPRP | -0.151 |
| RRIRARPPRLPRPRPRPILPPRP | 0.0507 |
| RRIRERPPRLPRPRPRPCSRPRP | -0.00322 |
| RRIRSRPPRLPRPRPRPCTQPRP | -0.294 |
| RRIRTRPPRLPRPRPRPGSMPRP | -0.199 |
| RRIRRRPPRLPRPRPRPKDLPRP | -0.0233 |
| RRIRHRPPRLPRPRPRPRNTPRP | -0.229 |
| RRIRCRPPRLPRPRPRPDTKPRP | -0.158 |
| RRIRRRPPRLPRPRPRPSMEPRP | 0.0198 |
| RRIRQRPPRLPRPRPRPTGTPRP | 0.285 |
| RRIRFRPPRLPRPRPRPLQEPRP | -0.203 |
| RRIRFRPPRLPRPRPRPHQHPRP | -0.582 |
| RRIRDRPPRLPRPRPRPFFAPRP | 0.412 |
| RRIRLRPPRLPRPRPRPQGLPRP | -0.0348 |
| RRIRYRPPRLPRPRPRPQFKPRP | -0.134 |

| Sequence | shrunken log2 fold change |
| --- | --- |
| RRIRVRPPRLPRPRPRPRATPRP | 0.114 |
| RRIRCRPPRLPRPRPRPVYNPRP | -0.378 |
| RRIRSRPPRLPRPRPRPECKPRP | 0.275 |
| RRIRWRPPRLPRPRPRPHQIPRP | -0.154 |
| RRIRIRPPRLPRPRPRPRADPRP | 0.0888 |
| RRIRERPPRLPRPRPRPFNAPRP | -0.328 |
| RRIRMRPPRLPRPRPRPMKFPRP | 0.0534 |
| RRIRQRPPRLPRPRPRPPNHPRP | -0.157 |
| RRIRSRPPRLPRPRPRPQNAPRP | -0.427 |
| RRIRGRPPRLPRPRPRPSQFPRP | 0.192 |
| RRIRIRPPRLPRPRPRPEQFPRP | 0.00851 |
| RRIRMRPPRLPRPRPRPKPAPRP | 1.55 |
| RRIRMRPPRLPRPRPRPQNMPRP | -0.631 |
| RRIRVRPPRLPRPRPRPHHYPRP | 0.13 |
| RRIRIRPPRLPRPRPRPCQMPRP | -0.111 |
| RRIRKRPPRLPRPRPRPCINPRP | -0.162 |
| RRIRGRPPRLPRPRPRPMVDPRP | 0.0455 |
| RRIRARPPRLPRPRPRPPVIPRP | 0.0687 |
| RRIRHRPPRLPRPRPRPEHIPRP | -0.142 |
| RRIRHRPPRLPRPRPRPLQWPRP | -0.127 |
| RRIRDRPPRLPRPRPRPYKKPRP | 0.00426 |
| RRIRKRPPRLPRPRPRPHNFPRP | -0.0511 |
| RRIRDRPPRLPRPRPRPWPPPRP | 0.32 |
| RRIRIRPPRLPRPRPRPQMKPRP | -0.747 |
| RRIRNRPPRLPRPRPRPPCYPRP | -0.41 |

| Sequence | shrunken log2 fold change |
| --- | --- |
| RRIRTRPPRLPRPRPRPTMKPRP | -0.334 |
| RRIRWRPPRLPRPRPRPMDQPRP | -0.131 |
| RRIRLRPPRLPRPRPRPPTPPRP | 0.617 |
| RRIRNRPPRLPRPRPRPHVTPRP | -0.357 |
| RRIRIRPPRLPRPRPRPWQNPRP | 0.00641 |
| RRIRMRPPRLPRPRPRPKMDPRP | 1.2 |
| RRIRQRPPRLPRPRPRPMQNPRP | -0.324 |
| RRIRFRPPRLPRPRPRPSDVPRP | 0.0142 |
| RRIRKRPPRLPRPRPRPMEAPRP | 0.0719 |
| RRIRCRPPRLPRPRPRPNLIPRP | -0.872 |
| RRIRERPPRLPRPRPRPAGGPRP | 0.2 |
| RRIRCRPPRLPRPRPRPYYHPRP | -1.28 |
| RRIRGRPPRLPRPRPRPPKHPRP | 0.567 |
| RRIRDRPPRLPRPRPRPCGHPRP | 0.232 |
| RRIRRRPPRLPRPRPRPPTCPRP | 0.474 |
| RRIRWRPPRLPRPRPRPDPAPRP | 0.663 |
| RRIRYRPPRLPRPRPRPPEDPRP | -0.145 |
| RRIRKRPPRLPRPRPRPWPWPRP | 0.847 |
| RRIRSRPPRLPRPRPRPVHCPRP | -0.258 |
| RRIRGRPPRLPRPRPRPEQAPRP | 1.83 |
| RRIRSRPPRLPRPRPRPRYHPRP | -0.339 |
| RRIRQRPPRLPRPRPRPFIPPRP | -0.395 |
| RRIRCRPPRLPRPRPRPWAEPRP | -0.136 |
| RRIRGRPPRLPRPRPRPITNPRP | 0.201 |
| RRIRGRPPRLPRPRPRPQCTPRP | 0.085 |
